B1: Hsp47-HT, P19324 Y353A (protein)
chain: AEVKKPLEAAAPGTAEKLSSKATTLAERSTGLAFSLYQAMAKDQAVENILLSPLVVASSLGLVSLGGKATTASQAKAVLSAEKLRDEEVHTGLGELLRSLSNSTARNVTWKLGSRLYGPSSVSFADDFVRSSKQHYNCEHSKINFRDKRSALQSINEWASQTTDGKLPEVTKDVERTDGALLVNAMFFKPHWDEKFHHKMVDNRGFMVTRSYTVGVTMMHRTGLYNYYDDEKEKLQMVEMPLAHKLSSLIILMPHHVEPLERLEKLLTKEQLKAWMGKMQKKAVAISLPKGVVEVTHDLQKHLAGLGLTEAIDKNKADLSRMSGKKDLYLASVFHATAFEWDTEGNPFDQDIAGREELRSPKLFYADHPFIFLVRDNQSGSLLFIGRLVRPKGDKMRDEL
B2: Hsp47-HT, P19324 Q350A (protein)
chain: AEVKKPLEAAAPGTAEKLSSKATTLAERSTGLAFSLYQAMAKDQAVENILLSPLVVASSLGLVSLGGKATTASQAKAVLSAEKLRDEEVHTGLGELLRSLSNSTARNVTWKLGSRLYGPSSVSFADDFVRSSKQHYNCEHSKINFRDKRSALQSINEWASQTTDGKLPEVTKDVERTDGALLVNAMFFKPHWDEKFHHKMVDNRGFMVTRSYTVGVTMMHRTGLYNYYDDEKEKLQMVEMPLAHKLSSLIILMPHHVEPLERLEKLLTKEQLKAWMGKMQKKAVAISLPKGVVEVTHDLQKHLAGLGLTEAIDKNKADLSRMSGKKDLYLASVFHATAFEWDTEGNPFDADIYGREELRSPKLFYADHPFIFLVRDNQSGSLLFIGRLVRPKGDKMRDEL
B3: Hsp47-HT, P19324 D351A (protein)
chain: AEVKKPLEAAAPGTAEKLSSKATTLAERSTGLAFSLYQAMAKDQAVENILLSPLVVASSLGLVSLGGKATTASQAKAVLSAEKLRDEEVHTGLGELLRSLSNSTARNVTWKLGSRLYGPSSVSFADDFVRSSKQHYNCEHSKINFRDKRSALQSINEWASQTTDGKLPEVTKDVERTDGALLVNAMFFKPHWDEKFHHKMVDNRGFMVTRSYTVGVTMMHRTGLYNYYDDEKEKLQMVEMPLAHKLSSLIILMPHHVEPLERLEKLLTKEQLKAWMGKMQKKAVAISLPKGVVEVTHDLQKHLAGLGLTEAIDKNKADLSRMSGKKDLYLASVFHATAFEWDTEGNPFDQAIYGREELRSPKLFYADHPFIFLVRDNQSGSLLFIGRLVRPKGDKMRDEL
B4: Hsp47-HT, P19324 E356A (protein)
chain: AEVKKPLEAAAPGTAEKLSSKATTLAERSTGLAFSLYQAMAKDQAVENILLSPLVVASSLGLVSLGGKATTASQAKAVLSAEKLRDEEVHTGLGELLRSLSNSTARNVTWKLGSRLYGPSSVSFADDFVRSSKQHYNCEHSKINFRDKRSALQSINEWASQTTDGKLPEVTKDVERTDGALLVNAMFFKPHWDEKFHHKMVDNRGFMVTRSYTVGVTMMHRTGLYNYYDDEKEKLQMVEMPLAHKLSSLIILMPHHVEPLERLEKLLTKEQLKAWMGKMQKKAVAISLPKGVVEVTHDLQKHLAGLGLTEAIDKNKADLSRMSGKKDLYLASVFHATAFEWDTEGNPFDQDIYGRAELRSPKLFYADHPFIFLVRDNQSGSLLFIGRLVRPKGDKMRDEL
B5: Hsp47-HT, P19324 R355A (protein)
chain: AEVKKPLEAAAPGTAEKLSSKATTLAERSTGLAFSLYQAMAKDQAVENILLSPLVVASSLGLVSLGGKATTASQAKAVLSAEKLRDEEVHTGLGELLRSLSNSTARNVTWKLGSRLYGPSSVSFADDFVRSSKQHYNCEHSKINFRDKRSALQSINEWASQTTDGKLPEVTKDVERTDGALLVNAMFFKPHWDEKFHHKMVDNRGFMVTRSYTVGVTMMHRTGLYNYYDDEKEKLQMVEMPLAHKLSSLIILMPHHVEPLERLEKLLTKEQLKAWMGKMQKKAVAISLPKGVVEVTHDLQKHLAGLGLTEAIDKNKADLSRMSGKKDLYLASVFHATAFEWDTEGNPFDQDIYGAEELRSPKLFYADHPFIFLVRDNQSGSLLFIGRLVRPKGDKMRDEL
B6: Hsp47-HT, P19324 Y353L (protein)
chain: AEVKKPLEAAAPGTAEKLSSKATTLAERSTGLAFSLYQAMAKDQAVENILLSPLVVASSLGLVSLGGKATTASQAKAVLSAEKLRDEEVHTGLGELLRSLSNSTARNVTWKLGSRLYGPSSVSFADDFVRSSKQHYNCEHSKINFRDKRSALQSINEWASQTTDGKLPEVTKDVERTDGALLVNAMFFKPHWDEKFHHKMVDNRGFMVTRSYTVGVTMMHRTGLYNYYDDEKEKLQMVEMPLAHKLSSLIILMPHHVEPLERLEKLLTKEQLKAWMGKMQKKAVAISLPKGVVEVTHDLQKHLAGLGLTEAIDKNKADLSRMSGKKDLYLASVFHATAFEWDTEGNPFDQDILGREELRSPKLFYADHPFIFLVRDNQSGSLLFIGRLVRPKGDKMRDEL
B7: Hsp47-HT, P19324 I352L (protein)
chain: AEVKKPLEAAAPGTAEKLSSKATTLAERSTGLAFSLYQAMAKDQAVENILLSPLVVASSLGLVSLGGKATTASQAKAVLSAEKLRDEEVHTGLGELLRSLSNSTARNVTWKLGSRLYGPSSVSFADDFVRSSKQHYNCEHSKINFRDKRSALQSINEWASQTTDGKLPEVTKDVERTDGALLVNAMFFKPHWDEKFHHKMVDNRGFMVTRSYTVGVTMMHRTGLYNYYDDEKEKLQMVEMPLAHKLSSLIILMPHHVEPLERLEKLLTKEQLKAWMGKMQKKAVAISLPKGVVEVTHDLQKHLAGLGLTEAIDKNKADLSRMSGKKDLYLASVFHATAFEWDTEGNPFDQDLYGREELRSPKLFYADHPFIFLVRDNQSGSLLFIGRLVRPKGDKMRDEL
B8: Hsp47-HT, P19324 Y353R (protein)
chain: AEVKKPLEAAAPGTAEKLSSKATTLAERSTGLAFSLYQAMAKDQAVENILLSPLVVASSLGLVSLGGKATTASQAKAVLSAEKLRDEEVHTGLGELLRSLSNSTARNVTWKLGSRLYGPSSVSFADDFVRSSKQHYNCEHSKINFRDKRSALQSINEWASQTTDGKLPEVTKDVERTDGALLVNAMFFKPHWDEKFHHKMVDNRGFMVTRSYTVGVTMMHRTGLYNYYDDEKEKLQMVEMPLAHKLSSLIILMPHHVEPLERLEKLLTKEQLKAWMGKMQKKAVAISLPKGVVEVTHDLQKHLAGLGLTEAIDKNKADLSRMSGKKDLYLASVFHATAFEWDTEGNPFDQDIRGREELRSPKLFYADHPFIFLVRDNQSGSLLFIGRLVRPKGDKMRDEL
B9: Hsp47-HT, P19324 I352E (protein)
chain: AEVKKPLEAAAPGTAEKLSSKATTLAERSTGLAFSLYQAMAKDQAVENILLSPLVVASSLGLVSLGGKATTASQAKAVLSAEKLRDEEVHTGLGELLRSLSNSTARNVTWKLGSRLYGPSSVSFADDFVRSSKQHYNCEHSKINFRDKRSALQSINEWASQTTDGKLPEVTKDVERTDGALLVNAMFFKPHWDEKFHHKMVDNRGFMVTRSYTVGVTMMHRTGLYNYYDDEKEKLQMVEMPLAHKLSSLIILMPHHVEPLERLEKLLTKEQLKAWMGKMQKKAVAISLPKGVVEVTHDLQKHLAGLGLTEAIDKNKADLSRMSGKKDLYLASVFHATAFEWDTEGNPFDQDEYGREELRSPKLFYADHPFIFLVRDNQSGSLLFIGRLVRPKGDKMRDEL
B10: Hsp47-HT, P19324 Y353F (protein)
chain: AEVKKPLEAAAPGTAEKLSSKATTLAERSTGLAFSLYQAMAKDQAVENILLSPLVVASSLGLVSLGGKATTASQAKAVLSAEKLRDEEVHTGLGELLRSLSNSTARNVTWKLGSRLYGPSSVSFADDFVRSSKQHYNCEHSKINFRDKRSALQSINEWASQTTDGKLPEVTKDVERTDGALLVNAMFFKPHWDEKFHHKMVDNRGFMVTRSYTVGVTMMHRTGLYNYYDDEKEKLQMVEMPLAHKLSSLIILMPHHVEPLERLEKLLTKEQLKAWMGKMQKKAVAISLPKGVVEVTHDLQKHLAGLGLTEAIDKNKADLSRMSGKKDLYLASVFHATAFEWDTEGNPFDQDIFGREELRSPKLFYADHPFIFLVRDNQSGSLLFIGRLVRPKGDKMRDEL
B11: Hsp47-HT, P19324 I352F (protein)
chain: AEVKKPLEAAAPGTAEKLSSKATTLAERSTGLAFSLYQAMAKDQAVENILLSPLVVASSLGLVSLGGKATTASQAKAVLSAEKLRDEEVHTGLGELLRSLSNSTARNVTWKLGSRLYGPSSVSFADDFVRSSKQHYNCEHSKINFRDKRSALQSINEWASQTTDGKLPEVTKDVERTDGALLVNAMFFKPHWDEKFHHKMVDNRGFMVTRSYTVGVTMMHRTGLYNYYDDEKEKLQMVEMPLAHKLSSLIILMPHHVEPLERLEKLLTKEQLKAWMGKMQKKAVAISLPKGVVEVTHDLQKHLAGLGLTEAIDKNKADLSRMSGKKDLYLASVFHATAFEWDTEGNPFDQDFYGREELRSPKLFYADHPFIFLVRDNQSGSLLFIGRLVRPKGDKMRDEL
B12: Hsp47-HT, P19324 I352R (protein)
chain: AEVKKPLEAAAPGTAEKLSSKATTLAERSTGLAFSLYQAMAKDQAVENILLSPLVVASSLGLVSLGGKATTASQAKAVLSAEKLRDEEVHTGLGELLRSLSNSTARNVTWKLGSRLYGPSSVSFADDFVRSSKQHYNCEHSKINFRDKRSALQSINEWASQTTDGKLPEVTKDVERTDGALLVNAMFFKPHWDEKFHHKMVDNRGFMVTRSYTVGVTMMHRTGLYNYYDDEKEKLQMVEMPLAHKLSSLIILMPHHVEPLERLEKLLTKEQLKAWMGKMQKKAVAISLPKGVVEVTHDLQKHLAGLGLTEAIDKNKADLSRMSGKKDLYLASVFHATAFEWDTEGNPFDQDRYGREELRSPKLFYADHPFIFLVRDNQSGSLLFIGRLVRPKGDKMRDEL
B13: Hsp47-HT, P19324 Y353E (protein)
chain: AEVKKPLEAAAPGTAEKLSSKATTLAERSTGLAFSLYQAMAKDQAVENILLSPLVVASSLGLVSLGGKATTASQAKAVLSAEKLRDEEVHTGLGELLRSLSNSTARNVTWKLGSRLYGPSSVSFADDFVRSSKQHYNCEHSKINFRDKRSALQSINEWASQTTDGKLPEVTKDVERTDGALLVNAMFFKPHWDEKFHHKMVDNRGFMVTRSYTVGVTMMHRTGLYNYYDDEKEKLQMVEMPLAHKLSSLIILMPHHVEPLERLEKLLTKEQLKAWMGKMQKKAVAISLPKGVVEVTHDLQKHLAGLGLTEAIDKNKADLSRMSGKKDLYLASVFHATAFEWDTEGNPFDQDIEGREELRSPKLFYADHPFIFLVRDNQSGSLLFIGRLVRPKGDKMRDEL

The target of the first test is T1, colFD-NL.
T1 chain: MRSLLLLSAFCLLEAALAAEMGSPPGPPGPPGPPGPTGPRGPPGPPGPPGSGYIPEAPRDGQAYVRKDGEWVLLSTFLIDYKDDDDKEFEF
Kind of test: BRET. The following applies: chain shown with the change; in the ER of HEK293 cells; n = 4; parent: est. 100; read off a plot. (BRET reads energy transfer from a luciferase to a nearby fluorophore.)
With B1, the percent of parent turned out to be 84%.
The same measure, in the same setting: next, B2: 100%; B3: 100%.
On the same count and under the same terms, next, B4: 95%; B5: 96%.

The next test has as its target T1, colFD-NL. Description: BRET. The following applies: chain shown with the change; in the ER of HEK293 cells; n = 4; parent: est. 100; read off a plot. This is another data set of the same source.
As to B1, the percent of parent came to 83%.
With B6, the percent of parent amounted to 82%.
As for B7, the percent of parent is 92%.
As for B8, the percent of parent is 74%.
Take B9: the percent of parent worked out at 83%.
On the same count and under the same terms, next, B10: 88%; B11: 95%.
Still for that read-out and setting: the result for B12 reads 81%; that for B13, 77%.
